Patent US20250333523A1 (Alector, published 2025)
“And” between values parts separate entries of the source, which are not always exact repeats. Equal entries are not always repeated.

T1: His/Avi-CynoIL18BP (recombinant cynomolgus IL-18BP with His and Avi tags) (cynomolgus monkey)
T1 construct: also called cynomolgus IL-18BP-Avi-His
T1 chain: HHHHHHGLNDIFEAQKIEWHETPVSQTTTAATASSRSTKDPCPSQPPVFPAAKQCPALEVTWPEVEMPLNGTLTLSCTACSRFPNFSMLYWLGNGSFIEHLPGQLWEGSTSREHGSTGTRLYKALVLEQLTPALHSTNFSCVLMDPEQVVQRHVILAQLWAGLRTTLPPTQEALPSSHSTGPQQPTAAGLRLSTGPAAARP

T2: Avi/His-HuIL18BPa (recombinant human IL-18BP isoform A with Avi and poly-His tags) (human, biotinylated with BirA on the Avi tag in some assays)
T2 construct: also called human IL-18BP-Avi-His
T2 chain: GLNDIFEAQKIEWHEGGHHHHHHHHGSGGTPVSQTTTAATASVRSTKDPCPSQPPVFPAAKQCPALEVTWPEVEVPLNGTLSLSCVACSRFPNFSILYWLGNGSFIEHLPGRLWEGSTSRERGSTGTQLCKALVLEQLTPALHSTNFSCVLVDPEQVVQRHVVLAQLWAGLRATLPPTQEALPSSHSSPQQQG

T3: Avi/HisMsIL18BPd (recombinant mouse IL-18BP with Avi and poly-His tags) (mouse, biotinylated with BirA on the Avi tag in some assays)
T3 construct: also called murine IL-18BP; IL-18BP-Avi-His (mouse)
T3 chain: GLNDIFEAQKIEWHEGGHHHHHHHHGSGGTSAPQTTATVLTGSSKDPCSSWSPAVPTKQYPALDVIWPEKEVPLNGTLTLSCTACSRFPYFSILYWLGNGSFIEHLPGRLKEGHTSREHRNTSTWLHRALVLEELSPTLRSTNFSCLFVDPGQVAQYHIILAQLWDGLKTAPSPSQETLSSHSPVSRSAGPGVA

T4: mouse IL-18BPd-human IgG Fc (R&D Systems, Cat. #122-BP-100) (mouse; human, UniProt Q9Z0M9 29-193)
T4 construct: Bought; also called mouse IL-18BPd-Fc Chimera
T4 sequence (looked up): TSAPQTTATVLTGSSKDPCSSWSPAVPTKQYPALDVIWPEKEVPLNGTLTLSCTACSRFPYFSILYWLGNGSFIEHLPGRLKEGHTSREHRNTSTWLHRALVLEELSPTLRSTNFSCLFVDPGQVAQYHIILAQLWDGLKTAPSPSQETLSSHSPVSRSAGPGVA

B1: anti-IL18BP antibody BP-04 (antibody, V domains shown)
VH: HVHLHQSGAELVRPGVSVKISCRGSGYTFTDYDVHWVKQSHAKSLEWIGVISTYYGDVGYNQEFKGKATMTLDKSSSTSYLELARLTSEDSAIYYCARSGTYYYGTRESHALDYWGQGTSVTVSS
VL: DIQMTQSPASLSVSVGETVTITCRTSDNVYSNLAWYQQKQGKSPQLLVYGAINLADGVPSRFSGSGSDTQYSLKINNLQSEDFGSYYCQHFWGNPYTFGGGTKLEIK
notes: also called BP-04 (hybridoma); BP-04 (parental)
B2: anti-IL18BP antibody BP-10 (antibody, human IgG1, V domains shown)
VH: QVQLQQPGAERVEPGASVRLSCKTSGYTFTNYWMHWVKQRPGQGLEWIGMIHPESGSTNNNEKFKSKATLTVDKSSSTAYMQLSSLTSEDSAVYYCARWDRGYFDYWGQGTTLTVSS
VL: DIVMTQSHKFMSTSVGDRVSITCKASQDVRSTVGWYQQRPGQSPKLLIYWTSTRHTGVPDRFTGSGSGTDYTLTISSVQAEDLALYYCQQHYSTPYTFGGGTTLEIK
B3: anti-IL18BP antibody BP-13 (antibody, human IgG1, V domains shown)
VH: QVQLQQSGAELVRPGASVTLSCKASGYTFTDYEMHWVKQTPVHGLEWIGPIDPETGDTAYNQKFKGQATLTADKSSSTAYMELSSLTSEDSAVYYCTRGSRGVFDYWGQGTALTVSS
VL: DIVMTQSHKFMSTSVGDRVSITCKASQDVGTAVAWYQQKPGQSPKLLIYWASARHTGVPDRFTGSGSGTDFTLTISNVQSEDLADYFCQHYFNFPRTFGGGTKLEIT
B4: anti-IL18BP antibody BP-12 (antibody, human IgG1, V domains shown)
VH: EVQLQQSGPELVKPGASVKMSCKTSGYTFTEYTMHWVKQSHGKSLEWIGGVNPNNGGTTYNQKFRDKATLTVDKSSSTTYMEVRTLTSDDSAVYYCAPLWRVFDYWGQGTTLTVSS
VL: DIVMTQSHKFMSSSVGDRVSITCKASQDVGTAVAWYQQKPGQSPKLLIYWASTRHTGVPDRFTGSGSGTDFTLTISNVQSEDLADYFCHQFSRYPLTFGAGTKLELK
B5: anti-IL18BP antibody BP-05 (antibody, human IgG1, V domains shown)
VH: EVQLQQSGPELVKPGASVKIPCKASGYTFTDYNMDWVKQSHGKSLEWIGNINTNNGGTVYNQKFKDKATLTVDKSSSTAYMELRSLTSEDTAVYYCARSDTTVVASRYYALDYWGQGTSVTVSS
VL: DIVLTQSPASLAMSLGKRATISCRASESVSIIGTDLIHWYQQKPGQPPKLLIYHASNLETGVPARFSGSGSRTDFTLTIDPVEEDDVAIYYCLQSRKIPPTFGGGTKLEIK
B6: anti-IL18BP antibody BP-15 (antibody, human IgG1, V domains shown)
VH: QVQLVQSGAEVKKPGASVKVSCKASGYTFTTYDINWVRQAPGQGLEWMGIINPSGGSTSYAQKFQGRVTMTRDTSTSTVYMELSSLRSEDTAVYYCATGIGELDFDYWGQGTLVTVSS
VL: DIQMTQSPSSLSASVGDRVTITCRASQSISSYLNWYQQKPGKAPKLLIYKASTLHNGVPSRFSGSGSGTDFTLTISNLQPEDFATYYCQQAISFPLTFGGGTKVEIK

Target: T1, His/Avi-CynoIL18BP (recombinant …)
Assay: SPR Biacore T200, IgG captured on Protein A/G

Binder	Kd	koff	kon
B1	7.3 nM and 8.5 nM	0.0032 s⁻¹ and 0.0033 s⁻¹	440000 M⁻¹ s⁻¹ and 390000 M⁻¹ s⁻¹

Target: T2, Avi/His-HuIL18BPa (recombinant human …)
Assay: SPR Biacore T200, IgG captured on Protein A/G

Binder	Kd	koff	kon [M⁻¹ s⁻¹]
B1	1 nM and 1.1 nM	0.00059 s⁻¹ and 0.00062 s⁻¹	580000

Target: T1, His/Avi-CynoIL18BP (recombinant …)
Assay: SPR Carterra LSA, IgG immobilized

Binder	Kd [nM]
B2	0.02
B1	3
B3	0.3
B4	0.5

Target: T2, Avi/His-HuIL18BPa (recombinant human …)
Assay: SPR Carterra LSA, IgG immobilized

Binder	Kd [nM]
B5	1.67
B2	1
B1	0.8
B6	18.8
B3	7.2
B4	7.6

Target: T1, His/Avi-CynoIL18BP (recombinant …)
Assay: ELISA, coated IL-18BP

Binder	ELISA binding ratio (fold-change over background) [fold over background]
B5	9.7
B2	48.1
B1	45.2
B6	34.5
B3	49
B4	44

Target: T3, Avi/HisMsIL18BPd (recombinant mouse …)
Assay: ELISA, coated IL-18BP

Binder	ELISA binding ratio (fold-change over background) [fold over background]
B5	32.1
B2	40.8
B1	39.1
B6	30.1
B3	16.9
B4	34.2

Target: T2, Avi/His-HuIL18BPa (recombinant human …)
Assay: ELISA, coated IL-18BP

Binder	ELISA binding ratio (fold-change over background) [fold over background]
B5	38.3
B2	42.1
B1	39.7
B6	32.7
B3	44.7
B4	43.2

Target: T3, Avi/HisMsIL18BPd (recombinant mouse …)
Assay: cell-based or functional assay

Binder	EC50 of IFNγ release, mouse splenocytes [nM]	Fold change of IFNγ at 10 µg/ml vs baseline, mouse splenocytes [fold]
B5	2.94	3.15
B2	538	2.85
B1	4.29	2.74
B6	5.85	7.94
B3	640	1.74
B4	15.7	1.88

Target: T2, Avi/His-HuIL18BPa (recombinant human …)
Assay: cell-based or functional assay

Binder	EC50 of IFNγ release, human PBMC [nM]	Fold change of IFNγ at 10 µg/ml vs baseline, human PBMC [fold]
B5	1.33	16.4
B2	2.05	15.5
B1	0.67	19
B6	100	36
B3	3.89	11.8
B4	6.09	10.3

target: T4, mouse IL-18BPd-human IgG Fc (R&D …); assay: blocking ELISA, competitor mouse IL-18

Binder	blocking ELISA signal normalized to isotype control (=1)
B5	0.138 ratio to isotype control
B2	0.326 ratio to isotype control
B1	0.122 ratio to isotype control
B6	0.211 ratio to isotype control
B3	0.53 ratio to isotype control
B4	0.351 ratio to isotype control

Target: T3, Avi/HisMsIL18BPd (recombinant mouse …)
Assay: cell-based or functional assay
Remark: another data set of the same source

Binder	EC50 of IFNγ release, mouse splenocytes [nM]
B1	14.9

Target: T2, Avi/His-HuIL18BPa (recombinant human …)
Assay: cell-based or functional assay
Remark: another data set of the same source

Binder	EC50 of IFNγ release, human PBMCs [nM]
B1	15.7

Target: T1, His/Avi-CynoIL18BP (recombinant …)
Assay: cell-based or functional assay

Binder	% of Max Gamma, human NK cells [%]	EC50 of IFNγ release, human NK cells [nM]
B2	55.2	6
B1	25.9	2.41
B6	10	0.000106
B3	54.1	39.7
B4	76.5	70

Target: T1, His/Avi-CynoIL18BP (recombinant …)
Assay: blocking ELISA, competitor rhesus IL-18

Binder	blocking ELISA signal normalized to isotype control (=1)
B5	0.989 ratio to isotype control
B2	0.28 ratio to isotype control
B1	0.943 ratio to isotype control
B3	0.331 ratio to isotype control
B4	0.36 ratio to isotype control

Target: T2, Avi/His-HuIL18BPa (recombinant human …)
Assay: blocking ELISA, competitor human IL-18

Binder	blocking ELISA signal normalized to isotype control (=1)
B5	0.191 ratio to isotype control
B2	0.067 ratio to isotype control
B1	0.165 ratio to isotype control
B3	0.128 ratio to isotype control
B4	0.117 ratio to isotype control

Target: T1, His/Avi-CynoIL18BP (recombinant …)
Assay: SPR Carterra LSA, IgG immobilized; WB = weak binding with KD > 1 µM

Binder	Kd [nM]
B5	> 1000
B6	> 1000
